One data set has as its system mouse marrow cells. The experiment in a line: Colony stimulating activity: colony formation of mouse marrow cells on single-layer soft agar gel. The class given is cell-based. The method, then:
(§1) The colony stimulating activity of the CSF according to the invention was determined by the method involving colony formation of mouse marrow cells on a single-layer soft agar gel. Thus, the CSF sample was admixed with 1 ml of McCoy's 5A medium (GIBCO) containing 0.3% agar, 20% fetal calf serum (FCS) and 1×10^5 mouse marrow cells. Incubation was carried out at 37° C. for 7 days under a stream of 7.5% CO2 -containing air. Thereafter, cell aggregates consisting of 50 or more cells were judged as colonies and counted. The colony stimulating activity was expressed in units. One unit was defined as the quantity of CSF required for the formation of one colony. The specific activity was expressed in terms of the number of colonies (units) formed per milligram of the CSF protein. […] The colonies formed were stained with hematoxylin-eosin for morphological classification.

Data set [1] relates to patients with thrombocytopenia. The experiment in a line: Administration to patients with thrombocytopenia (summary of clinical test examples 1 and 2). The following applies: administration in the course of chemotherapy. In kind it is in vivo, human. From the text:
A malignant tumor patient was subjected to chemotherapy (first chemotherapy), then merely observed for a period (control phase) and, after a second chemotherapy, administered with 8×10^6 units of a glycoprotein preparation comprising the prepared in Reference Example 1 as active ingredient by intravenous drip for 7 consecutive days (preparation administration phase). Blood granulocytes and platelets were counted at timed intervals. The minimum platelet count and the number of days required for the platelet level to regain a level of at least 10^5 /mm^3 in the control phase and in the preparation administration phase are comparatively shown in Table 4.
Ten malignant tumor patients were subjected to a first chemotherapy, then observed without any treatment for a period (control phase) and, after a second chemotherapy, administered with 8×10^6 units of a glycoprotein preparation comprising the CSF prepared in Reference Example 1 as active ingredient by intravenous drip for 7 consecutive days (preparation administration phase). Blood platelets were counted at timed intervals. The minimum platelet count and the number of days required for the platelet count to regain a level of at least 10^5 /mm^3 in the control phase and in the preparation administration phase are comparatively shown in Table 5.

Data set [2] can be described thus: Isoelectric point by polyacrylamide gel isoelectric focusing and sucrose density gradient isoelectric focusing. The class given is physicochemical. From the text:
The isoelectric point (pI) as determined by the polyacrylamide gel isoelectric focusing and sucrose density gradient isoelectric focusing techniques is 3.1-3.7.

Data set [3] can be described thus: Thermal stability: colony stimulating activity after heating. The class given is physicochemical. The following applies: 1 μg/ml, dilute buffer pH 7.0, 60±0.5° C., 60 minutes. The protocol:
The CSF was dissolved in a dilute buffer (pH 7.0) to a concentration of 1 μg/ml, and the solution was heated at 60±0.5° C. for 60 minutes and then assayed for colony stimulating activity (to be mentioned later herein).
as §1

Here are results for one molecule from patent US5114710A, “M-CSF as a therapeutic agent for thrombocytopenia” (Green Cross Corporation, priority 1988, dated 1992).

“Also recorded” adds a separate entry of the source.

B1: CSF: human monocyte-macrophage colony stimulating factor, glycoprotein homodimer of two identical subunits (35,000-45,000 daltons each), purified from human urine (protein, UniProt P09603 33-554, looked up)
Macrophage colony-stimulating …: EEVSEYCSHMIGSGHLQSLQRLIDSQMETSCQITFEFVDQEQLKDPVCYLKKAFLLVQDIMEDTMRFRDNTPNAIAIVQLQELSLRLKSCFTKDYEEHDKACVRTFYETPLQLLEKVKNVFNETKNLLDKDWNIFSKNCNNSFAECSSQDVVTKPDCNCLYPKAIPSSDPASVSPHQPLAPSMAPVAGLTWEDSEGTEGSSLLPGEQPLHTVDPGSAKQRPPRSTCQSFEPPETPVVKDSTIGGSPQPRPSVGAFNPGMEDILDSAMGTNWVPEEASGEASEIPVPQGTELSPSRPGGGSMQTEPARPSNFLSASSPLPASAKGQQPADVTGTALPRVGPVRPTGQDWNHTPQKTDHPSALLRDPPEPGSPRISSLRPQGLSNPSTLSAQPQLSRSHSSGSVLPLGELEGRRSTRDRRSPAEPEGGPASEGAARPLPRFNSVPLTDTGHERQSEGSFSPQLQESVFHLLVPSVILVLLAVGGLLFYRWRRRSHQEPQRADSPLEQPEGSPLTQDDRQVELPV
modifications: urinary homodimer
notes: human monocyte-macrophage colony stimulating factor, glycoprotein homodimer of two identical subunits (35,000-45,000 daltons each), purified from human urine
On to B1, for which the specific activity is on record as 5.2×10^7 units/mg in the data set on mouse marrow cells (Reference Example 2, CSF purified with antibody-bound carrier); 2 ×10^5 units/mg in the data set with mouse marrow cells (Reference Example 2, CSF-containing solution before antibody-bound carrier treatment); 1.6 × 10^5 units/mg in the data set on mouse marrow cells (purification step (1) DEAE-cellulose); 5.7 × 10^5 units/mg in the data set with mouse marrow cells (purification step (2) Sephacryl S-300); 8.8 × 10^6 units/mg in the data set on mouse marrow cells (purification step (3) Phenyl-Sepharose); 2.0 × 10^7 units/mg in the data set on mouse marrow cells (purification step (4) TSKG-3,000 SW). In the data set with mouse marrow cells (purification step (5) Hi-Pore RP-304 (final)), the specific activity is reported as 1.4 × 10^8 units/mg. Further, the “monocyte-macrophage colonies among the colonies formed” value in the data set with mouse marrow cells (hematoxylin-eosin staining, morphological classification) is “at least 95%”. Further, the “specific activity (colony stimulating activity)” value in the data set on mouse marrow cells (purified CSF, mouse marrow cells, 7 days at 37° C., one unit = one colony) is reported as 1.4×10^8 units per milligram of protein. For the same molecule, in data set [1], the “restoration of a normal platelet level” value is given as “rapid restoration of a normal platelet level”. Also, the “isoelectric point (pI)” value in data set [2] was 3.1-3.7. In data set [3], the “thermal stability (colony stimulating activity after heating)” value is recorded as “The biological activity is not lost; also recorded: Almost no activity decrease was observed”.
